Reference: publication PMC2872155

What was measured:
[1] = system: VP35 IID (Zaire ebolavirus); assay: NMR; conditions: 5'ppp; not given in the material (Methods absent)
[2] = system: VP35 IID (Zaire ebolavirus); assay: NMR competition; conditions: 5'ppp; not given in the material (Methods absent)
[3] = system: VP35 IID (Zaire ebolavirus); assay: ITC; conditions: not given in the material (Methods absent)

| Substance | binding signal (relative HSQC peak intensity) [1] | binding signal (relative HSQC peak intensity) [2] | Kd [3] |
| --- | --- | --- | --- |
| IVT-8 bp dsRNA | 0.36 | 0.42 | – |
| 8 bp dsRNA | – | – | 500 nM |
